The record followed here is patent publication US20230220443.

For the data set, the target named is H3(1-53) peptide.

B1: protein lysine N-methyltransferase (histone H3 lysine-9 specific) from Neurospora crassa (NcDIM-5) (protein)
chain: IRSFATHAQLPISIVNREDDAFLNPNFRFIDHSIIGKNVPVADQSFRVGCSCASDEECMYSTCQCLDEMAPDSDEEADPYTRKKRFAYYSQGAKKGLLRDRVLQSQEPIYECHQGCACSKDCPNRVVERGRTVPLQIFRTKDRGWGVKCPVNIKRGQFVDRYLGEIITSEEADRRRAESTIARRKDVYLFALDKFSDPDSLDPLLAGQPLEVDGEYMSGPTRFINHSCDPNMAIFARVGDHADKHIHDLALFAIKDIPKGTELTFDYVNGLTGLESDAHDPSKISEMTKCLCGTAKCRGYLW
For B1, the Km for peptide H3(1-53), TM0936-coupled methyltransferase assay (absorbance 263 nm), SAM saturating, 7.6 nM NcDIM-5, glycine buffer pH 9.50 worked out at 0.9 µM.
